Data reported in the supplement of paper PMC10126150.
± gives the standard deviation of the averaged measurements.

test system: ATP; test: switch fluorescence ratio, 500 uM ATP over buffer (Cy3 cluster intensity, sum of 5 cycles each) (fold (ratio)); higher = stronger signal-on switching upon ATP binding; sequences stand for … in TCGTCGGCAGCGTCAGATGTGTATAAGAGACAGTTTTTTTTTTTTTTTTTTTTTTTTT…TC; settings: aptamer strand: ATP DNA aptamer (quencher-CACCTGGGGGAGTATTGCGGAGGAAGG + anchor), 100 nM annealed; ATP concentration: 500 uM
Procedure, shortened: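 Exposure to 500 uM ATP lasted 15 min at 22 °C before imaging, and a selection-buffer image was taken beforehand, for Cy3-labelled switching-strand clusters on a modified Illumina MiSeq flow-cell annealed to 100 nM quencher-labelled ATP aptamer. Five buffer/ATP cycles were run with NaOH stripping and re-annealing between them. The fluorescence ratio per cluster is summed target-cycle over summed buffer-cycle Cy3 intensity, averaged per switch-domain sequence. Clusters outside 100-1000 RFU were excluded.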

Sequence	switch fluorescence ratio
TTCTTGGACA	0.993 ± 0.016
TTCTTGTGGG	1.05 ± 0.057
TTCTTGTGTG	1 ± 0.041
TTCTTTAATT	0.963 ± 0.01
TTCTTTGGGG	1.04 ± 0.093
TTCTTTGGGT	0.947 ± 0.036
TTCTTTTGTT	1 ± 0.025
TTCTTTTTGC	0.9678 ± 0.0084
TTCTTTTTGG	0.97 ± 0.042
TTGAAAAAGT	0.992 ± 0.018
TTGAAAAGAT	1.05 ± 0.04
TTGAAAATGG	0.992 ± 0.026
TTGAAACTCG	1.063 ± 0.0023
TTGAAATCGC	1.01 ± 0.041
TTGAAATTGG	0.99 ± 0.031
TTGAACGGGT	1.07 ± 0.1
TTGAACGTTT	0.974 ± 0.019
TTGAACTGTG	1.02 ± 0.22
TTGAAGGATG	0.997 ± 0.029
TTGAAGTCCG	1.03 ± 0.026
TTGAATATCT	1.03 ± 0.032
TTGAATATTT	1 ± 0.014
TTGAATGGTT	0.994 ± 0.021
TTGAATGTCA	0.968 ± 0.019
TTGACAATGG	0.99 ± 0.012
TTGACAGT	0.9777 ± 0.0022

Sequence	switch fluorescence ratio
TTGACCGGGA	1.14 ± 0.27
TTGACCTGGG	1.1 ± 0.098
TTGACGACGG	1.01 ± 0.048
TTGACGATTT	1.05 ± 0.063
TTGACGGAGA	0.993 ± 0.039
TTGACGTATA	1.96 ± 1.2
TTGACTTGTC	0.9991 ± 0.0069
TTGAGAAGGG	1.04 ± 0.04
TTGAGAGCGG	1.01 ± 0.047
TTGAGAGGGA	0.99 ± 0.019
TTGAGAGGTT	1.02 ± 0.039
TTGAGAGTTT	1.04 ± 0.093
TTGAGATATG	0.9989 ± 0.0076
TTGAGCAAGG	1.06 ± 0.089
TTGAGCTTGT	1.02 ± 0.027
TTGAGGACGT	0.975 ± 0.045
TTGAGGATTG	1 ± 0.018
TTGAGGGAAT	0.992 ± 0.033
TTGAGGTCGT	1.023 ± 0.0038
TTGAGGTCTT	0.964 ± 0.024
TTGAGTAACT	0.967 ± 0.024
TTGAGTACCG	0.959 ± 0.022
TTGAGTACGT	0.992 ± 0.045
TTGAGTACTA	1.01 ± 0.022
TTGAGTATGC	1.07 ± 0.047
TTGAGTGAGC	0.988 ± 0.025

Sequence	switch fluorescence ratio
TTGAGTGGGT	0.99 ± 0.042
TTGAGTGTGC	1.02 ± 0.023
TTGAGTTTAT	1.02 ± 0.12
TTGAGTTTGT	0.977 ± 0.015
TTGATAACAA	1.04 ± 0.036
TTGATAGAAA	1.01 ± 0.038
TTGATAGCTT	0.998 ± 0.018
TTGATAGGGG	1.01 ± 0.031
TTGATATAAT	0.981 ± 0.014
TTGATATCGG	0.979 ± 0.023
TTGATATGGT	0.997 ± 0.022
TTGATCGATG	0.9886 ± 0.0068
TTGATCGCTC	1.82 ± 1
TTGATCTGTT	0.972 ± 0.021
TTGATGAAGA	1.01 ± 0.036
TTGATGCCCA	0.97 ± 0.023
TTGATTATAT	1.02 ± 0.012
TTGATTTGTC	0.988 ± 0.011
TTGCAAGAGA	1.022 ± 0.0082
TTGCAAGGGC	1.08 ± 0.074
TTGCAATTGG	2.56 ± 2
TTGCACCGTT	1.01 ± 0.038
TTGCACGCCT	1.01 ± 0.024
TTGCACGGTC	1.03 ± 0.085
